Tests used:
[1] = target: IgG150-18 (scFv150-18 cloned into human IgG format); test: FACS binding assay; details: chain shown with the change, read off a plot
[2] = target: IgG150-18 (scFv150-18 cloned into human IgG format); test: FACS assay on cells; details: chain shown with the change; highest antibody concentration point, Log [IgG150_18] (M) about -7.5; parent: est. 100; read off a plot
[3] = 100nM antibody, parent: est. 100

Chain of IgG150-18 (scFv150-18 cloned into human IgG format) (chain, as listed by the source, chain 1 of 2): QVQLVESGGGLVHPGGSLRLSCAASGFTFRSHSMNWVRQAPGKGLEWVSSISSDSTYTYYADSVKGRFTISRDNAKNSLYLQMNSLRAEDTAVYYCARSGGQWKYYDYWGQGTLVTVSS
Chain of IgG150-18 (scFv150-18 cloned into human IgG format) (chain, as listed by the source, chain 2 of 2): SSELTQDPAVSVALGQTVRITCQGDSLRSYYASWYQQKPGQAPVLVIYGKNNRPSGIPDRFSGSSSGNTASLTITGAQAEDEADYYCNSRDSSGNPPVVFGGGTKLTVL

B1: WT GPRC5D expressed on HEK293T cells, Q9NZD1 E83A (protein)
chain: MYKDCIESTGDYFLLCDAEGPWGIILESLAILGIVVTILLLLAFLFLMRKIQDCSQWNVLPTQLLFLLSVLGLFGLAFAFIIALNQQTAPVRYFLFGVLFALCFSCLLAHASNLVKLVRGCVSFSWTTILCIAIGCSLLQIIIATEYVTLIMTRGMMFVNMTPCQLNVDFVVLLVYVLFLMALTFFVSKATFCGPCENWKQHGRLIFITVLFSIIIWVVWISMLLRGNPQFQRQPQWDDPVVCIALVTNAWVFLLLYIVPELCILYRSCRQECPLQGNACPVTAYQHSFQVENQELSRARDSDGAEEDVALTSYGTPIQPQTVDPTQECFIPQAKLSPQQDAGGV
percent of parent ([1]; 1nM antibody, parent: est. 8): 5 % of WT
percent of parent ([1]; 10nM antibody, parent: est. 75): 72 % of WT
percent of parent [1, 3]: 95 % of WT

B2: WT GPRC5D expressed on HEK293T cells, Q9NZD1 S8A (protein)
chain: MYKDCIEATGDYFLLCDAEGPWGIILESLAILGIVVTILLLLAFLFLMRKIQDCSQWNVLPTQLLFLLSVLGLFGLAFAFIIELNQQTAPVRYFLFGVLFALCFSCLLAHASNLVKLVRGCVSFSWTTILCIAIGCSLLQIIIATEYVTLIMTRGMMFVNMTPCQLNVDFVVLLVYVLFLMALTFFVSKATFCGPCENWKQHGRLIFITVLFSIIIWVVWISMLLRGNPQFQRQPQWDDPVVCIALVTNAWVFLLLYIVPELCILYRSCRQECPLQGNACPVTAYQHSFQVENQELSRARDSDGAEEDVALTSYGTPIQPQTVDPTQECFIPQAKLSPQQDAGGV
percent of parent ([1]; 1nM antibody, parent: est. 8): 3 % of WT
percent of parent ([1]; 10nM antibody, parent: est. 75): 65 % of WT
percent of parent [1, 3]: 92 % of WT

B3: WT GPRC5D expressed on HEK293T cells, Q9NZD1 L15A (protein)
chain: MYKDCIESTGDYFLACDAEGPWGIILESLAILGIVVTILLLLAFLFLMRKIQDCSQWNVLPTQLLFLLSVLGLFGLAFAFIIELNQQTAPVRYFLFGVLFALCFSCLLAHASNLVKLVRGCVSFSWTTILCIAIGCSLLQIIIATEYVTLIMTRGMMFVNMTPCQLNVDFVVLLVYVLFLMALTFFVSKATFCGPCENWKQHGRLIFITVLFSIIIWVVWISMLLRGNPQFQRQPQWDDPVVCIALVTNAWVFLLLYIVPELCILYRSCRQECPLQGNACPVTAYQHSFQVENQELSRARDSDGAEEDVALTSYGTPIQPQTVDPTQECFIPQAKLSPQQDAGGV
percent of parent ([1]; 10nM antibody, parent: est. 75): 38 % of WT
percent of parent [1, 3]: 63 % of WT

B4: WT GPRC5D expressed on HEK293T cells, Q9NZD1 C16A (protein)
chain: MYKDCIESTGDYFLLADAEGPWGIILESLAILGIVVTILLLLAFLFLMRKIQDCSQWNVLPTQLLFLLSVLGLFGLAFAFIIELNQQTAPVRYFLFGVLFALCFSCLLAHASNLVKLVRGCVSFSWTTILCIAIGCSLLQIIIATEYVTLIMTRGMMFVNMTPCQLNVDFVVLLVYVLFLMALTFFVSKATFCGPCENWKQHGRLIFITVLFSIIIWVVWISMLLRGNPQFQRQPQWDDPVVCIALVTNAWVFLLLYIVPELCILYRSCRQECPLQGNACPVTAYQHSFQVENQELSRARDSDGAEEDVALTSYGTPIQPQTVDPTQECFIPQAKLSPQQDAGGV
percent of parent ([1]; 10nM antibody, parent: est. 75): 1 % of WT

B5: WT GPRC5D expressed on HEK293T cells, Q9NZD1 R154G; V159G; N160G; T162G; P163G; L166G (protein)
chain: MYKDCIESTGDYFLLCDAEGPWGIILESLAILGIVVTILLLLAFLFLMRKIQDCSQWNVLPTQLLFLLSVLGLFGLAFAFIIELNQQTAPVRYFLFGVLFALCFSCLLAHASNLVKLVRGCVSFSWTTILCIAIGCSLLQIIIATEYVTLIMTGGMMFGGMGGCQGNVDFVVLLVYVLFLMALTFFVSKATFCGPCENWKQHGRLIFITVLFSIIIWVVWISMLLRGNPQFQRQPQWDDPVVCIALVTNAWVFLLLYIVPELCILYRSCRQECPLQGNACPVTAYQHSFQVENQELSRARDSDGAEEDVALTSYGTPIQPQTVDPTQECFIPQAKLSPQQDAGGV
percent of parent [2]: 82 % of WT

B6: WT GPRC5D expressed on HEK293T cells, Q9NZD1 P235A (protein)
chain: MYKDCIESTGDYFLLCDAEGPWGIILESLAILGIVVTILLLLAFLFLMRKIQDCSQWNVLPTQLLFLLSVLGLFGLAFAFIIELNQQTAPVRYFLFGVLFALCFSCLLAHASNLVKLVRGCVSFSWTTILCIAIGCSLLQIIIATEYVTLIMTRGMMFVNMTPCQLNVDFVVLLVYVLFLMALTFFVSKATFCGPCENWKQHGRLIFITVLFSIIIWVVWISMLLRGNPQFQRQAQWDDPVVCIALVTNAWVFLLLYIVPELCILYRSCRQECPLQGNACPVTAYQHSFQVENQELSRARDSDGAEEDVALTSYGTPIQPQTVDPTQECFIPQAKLSPQQDAGGV
percent of parent ([1]; 10nM antibody, parent: est. 75): 43 % of WT
percent of parent [1, 3]: 95 % of WT

B7: WT GPRC5D expressed on HEK293T cells, Q9NZD1 Q236A (protein)
chain: MYKDCIESTGDYFLLCDAEGPWGIILESLAILGIVVTILLLLAFLFLMRKIQDCSQWNVLPTQLLFLLSVLGLFGLAFAFIIELNQQTAPVRYFLFGVLFALCFSCLLAHASNLVKLVRGCVSFSWTTILCIAIGCSLLQIIIATEYVTLIMTRGMMFVNMTPCQLNVDFVVLLVYVLFLMALTFFVSKATFCGPCENWKQHGRLIFITVLFSIIIWVVWISMLLRGNPQFQRQPAWDDPVVCIALVTNAWVFLLLYIVPELCILYRSCRQECPLQGNACPVTAYQHSFQVENQELSRARDSDGAEEDVALTSYGTPIQPQTVDPTQECFIPQAKLSPQQDAGGV
percent of parent ([1]; 10nM antibody, parent: est. 75): 53 % of WT
percent of parent [1, 3]: 75 % of WT

B8: WT GPRC5D expressed on HEK293T cells, Q9NZD1 T9A (protein)
chain: MYKDCIESAGDYFLLCDAEGPWGIILESLAILGIVVTILLLLAFLFLMRKIQDCSQWNVLPTQLLFLLSVLGLFGLAFAFIIELNQQTAPVRYFLFGVLFALCFSCLLAHASNLVKLVRGCVSFSWTTILCIAIGCSLLQIIIATEYVTLIMTRGMMFVNMTPCQLNVDFVVLLVYVLFLMALTFFVSKATFCGPCENWKQHGRLIFITVLFSIIIWVVWISMLLRGNPQFQRQPQWDDPVVCIALVTNAWVFLLLYIVPELCILYRSCRQECPLQGNACPVTAYQHSFQVENQELSRARDSDGAEEDVALTSYGTPIQPQTVDPTQECFIPQAKLSPQQDAGGV
percent of parent ([1]; 1nM antibody, parent: est. 8): 11 % of WT
percent of parent ([1]; 10nM antibody, parent: est. 75): 82 % of WT
percent of parent [1, 3]: 100 % of WT

B9: WT GPRC5D expressed on HEK293T cells, Q9NZD1 E83G; L84G (protein)
chain: MYKDCIESTGDYFLLCDAEGPWGIILESLAILGIVVTILLLLAFLFLMRKIQDCSQWNVLPTQLLFLLSVLGLFGLAFAFIIGGNQQTAPVRYFLFGVLFALCFSCLLAHASNLVKLVRGCVSFSWTTILCIAIGCSLLQIIIATEYVTLIMTRGMMFVNMTPCQLNVDFVVLLVYVLFLMALTFFVSKATFCGPCENWKQHGRLIFITVLFSIIIWVVWISMLLRGNPQFQRQPQWDDPVVCIALVTNAWVFLLLYIVPELCILYRSCRQECPLQGNACPVTAYQHSFQVENQELSRARDSDGAEEDVALTSYGTPIQPQTVDPTQECFIPQAKLSPQQDAGGV
percent of parent [2]: 97 % of WT

B10: WT GPRC5D expressed on HEK293T cells, Q9NZD1 P235G; Q236G (protein)
chain: MYKDCIESTGDYFLLCDAEGPWGIILESLAILGIVVTILLLLAFLFLMRKIQDCSQWNVLPTQLLFLLSVLGLFGLAFAFIIELNQQTAPVRYFLFGVLFALCFSCLLAHASNLVKLVRGCVSFSWTTILCIAIGCSLLQIIIATEYVTLIMTRGMMFVNMTPCQLNVDFVVLLVYVLFLMALTFFVSKATFCGPCENWKQHGRLIFITVLFSIIIWVVWISMLLRGNPQFQRQGGWDDPVVCIALVTNAWVFLLLYIVPELCILYRSCRQECPLQGNACPVTAYQHSFQVENQELSRARDSDGAEEDVALTSYGTPIQPQTVDPTQECFIPQAKLSPQQDAGGV
percent of parent [2]: 100 % of WT

B11: WT GPRC5D expressed on HEK293T cells, Q9NZD1 D11A (protein)
chain: MYKDCIESTGAYFLLCDAEGPWGIILESLAILGIVVTILLLLAFLFLMRKIQDCSQWNVLPTQLLFLLSVLGLFGLAFAFIIELNQQTAPVRYFLFGVLFALCFSCLLAHASNLVKLVRGCVSFSWTTILCIAIGCSLLQIIIATEYVTLIMTRGMMFVNMTPCQLNVDFVVLLVYVLFLMALTFFVSKATFCGPCENWKQHGRLIFITVLFSIIIWVVWISMLLRGNPQFQRQPQWDDPVVCIALVTNAWVFLLLYIVPELCILYRSCRQECPLQGNACPVTAYQHSFQVENQELSRARDSDGAEEDVALTSYGTPIQPQTVDPTQECFIPQAKLSPQQDAGGV
percent of parent [1, 3]: 42 % of WT

B12: WT GPRC5D expressed on HEK293T cells, Q9NZD1 S8G; D11G; L15G; C16G; D17G (protein)
chain: MYKDCIEGTGGYFLGGGAEGPWGIILESLAILGIVVTILLLLAFLFLMRKIQDCSQWNVLPTQLLFLLSVLGLFGLAFAFIIELNQQTAPVRYFLFGVLFALCFSCLLAHASNLVKLVRGCVSFSWTTILCIAIGCSLLQIIIATEYVTLIMTRGMMFVNMTPCQLNVDFVVLLVYVLFLMALTFFVSKATFCGPCENWKQHGRLIFITVLFSIIIWVVWISMLLRGNPQFQRQPQWDDPVVCIALVTNAWVFLLLYIVPELCILYRSCRQECPLQGNACPVTAYQHSFQVENQELSRARDSDGAEEDVALTSYGTPIQPQTVDPTQECFIPQAKLSPQQDAGGV
percent of parent [2]: 3 % of WT

B13: WT GPRC5D expressed on HEK293T cells, Q9NZD1 S8G; D11G; L15G; C16G; D17G; E83G; L84G; R154G; V159G; N160G; T162G; P163G; L166G; P235G; Q236G (protein)
chain: MYKDCIEGTGGYFLGGGAEGPWGIILESLAILGIVVTILLLLAFLFLMRKIQDCSQWNVLPTQLLFLLSVLGLFGLAFAFIIGGNQQTAPVRYFLFGVLFALCFSCLLAHASNLVKLVRGCVSFSWTTILCIAIGCSLLQIIIATEYVTLIMTGGMMFGGMGGCQGNVDFVVLLVYVLFLMALTFFVSKATFCGPCENWKQHGRLIFITVLFSIIIWVVWISMLLRGNPQFQRQGGWDDPVVCIALVTNAWVFLLLYIVPELCILYRSCRQECPLQGNACPVTAYQHSFQVENQELSRARDSDGAEEDVALTSYGTPIQPQTVDPTQECFIPQAKLSPQQDAGGV
percent of parent ([1]; 10nM antibody, parent: est. 75): 1 % of WT
percent of parent [2]: 12 % of WT

— PMC11187071
